This data set deals with Vaccinia DNA topoisomerase I (Vaccinia virus, UniProt P68698 P68698:1-314). In words: covalent charging of vector at CCCTT, 37 C 15 min, NEB buffer 1; charged vector cloned the test insert with 93.6-95.1% efficiency. The note with it: ligated to EcoRI-cut pCR8/GW ends. Here is the method:
TOPO charging. To 5 μg of ligated DNA, 3 μg of TOPO-5 oligonucleotide (5'-CAACA CTATC GGAAT A-3' (SEQ ID NO: 66), phosphorylated on the 5' end), 10 μl 5× NEB #1 (New England Biolabs, Inc., Beverly, Mass. cat. no. M0202S), and 5 μg of Vaccinia Topoisomerase I was added and the volume adjusted to 50 μl with water. This reaction was incubated at 37° C. for 15 minutes before addition of 5 μl of 10× TOPO Stop Buffer (1 M Tris-HCl, pH 7.5, 500 mM EDTA). The TOPO adapted vector was then gel purified and quantified using the Hoechst dye assay.
Testing of TOPO cloning efficiency. TOPO cloning efficiency was determined using a 500 bp PCR fragment containing a bacterial lac promoter driving the lacZ alpha fragment, this positive control fragment is found in some of Invitrogen's TOPO T/A cloning kits, for example, cat. no. K4300-01. Cloning of this fragment generated blue colonies on X-gal plates and colonies without the cloned fragment were white. The ratio of the total number of blue colonies to the total number of colonies was representative of the efficiency of the TOPO reaction. Twenty nanograms of the Taq polymerase generated 500 bp PCR product was used per TOPO reaction.
T/A TOPO QC testing. The pCR8/GW/TOPO system was tested by TOPO cloning a Platinum taq-generated 500 bp test insert and selected ORFs into pCR8/GW/TOPO. TOPO cloning efficiency was measured using standard QC procedures. […]

B1: TOPO adapter duplex (TOPO-1/TOPO-5/TOPO-4) (dsDNA)
DNA 1: AATTCGCCCTTATTCCGATAGTG
DNA 2: CAACACTATCGGAATA
DNA 3: AGGGCG
modifications: 5'-phosphate on TOPO-5
Consider B1, for which the binding result is recorded as “binds”.

These data come from patent US8304189, “Nucleic acid molecules containing recombination sites and methods of using the same” (Life Technologies Corporation).
